Source: IntAct's records for PubMed 24751834

B1: Type VI secretion system spike protein VgrG3 (Vibrio cholerae), Q9KN42 (parent)
chain: MARLQFQLKVDGLEDESLVVRGFEGQESLSDSVWRCEPCYGFRYQVDLASALSNLTAEQFVDQTAHLTILRDGQVVQQINGIVRQLSKGDTGHRHTFYSLTLVPALERLSLRSNSRIFQQQSVPEIISILLQEMGIEDYAFALKRECAQREFCVQYRETDLQFLHRIAAEEGLVYSHLHEAQKHTLLFTDSSDSQPKLAKPVPYNALAGGEINLPYVVDLQFKTTAQVSHTELKDYSFKKPAYGFTQRTQGKDIAYQQPNYEHFDAPGRYKDDANGKAFSQIRLEYLRRDALLADAKSDEPLLLAGVRFDLQDHLDHAMNRDWLVVQANHQGTQPQALQEEGGSGATTYSNQLKLIPAHITWRARPCAKPQVDGPMIATVVGPQGEEIYCDNFGRVKVHFPWDRYSSSNEKSSCWVRVAQEWAGSQYGSMAIPRVGHEVIVSFLNGDPDQPIITGRTYHATNTAPYALPDHKTKTVLRTETHQGQGYNELSFEDQAGSEQILLHAQKDWDALIEHDHTEVIRHDQHLTVDNDRFTRIQRNQHLTVEGEVRSKIALDSSHEVGASLQHKVGQRIAVEAGKEISLKSGAKIVVEAGAELTLKAGGSFVKVDAGGVHLVGPAINLNAGGSAGSGSAYGGQLAAAPRMLAQAKPVAELVQPDIAASMQSGAARVIDVASLPTMMPSSANNTANDEPVAEEKTPERILKSDLLKPSDELEKLAKRQASAYRQGNHSDEVKLLQEALIKLGFDLGKAGADGDFGSKTKTAIEQFQKSYQPSHQTHPSYSIGAVDGIVGKGTLLALDEALMDGWVYENNIYQIWPLGKTSEKYESAGRGPGVISTGNGDYGGASYGCYQMSSNLGVVQKYIQSSKFKEFFSGLNPATKEFNVVWQDIASRYPQEFREEQHQFIKRTHYDIQIGHLRGKGLLFEHNRAAVHDLIWSTSVQFGGRTNLIFNALNGQNMESMTDKDIIILVQDYKLVNTERLFKSSPSWWSDLKKRAVSEKKALLELEIDGLEVDIK
partner: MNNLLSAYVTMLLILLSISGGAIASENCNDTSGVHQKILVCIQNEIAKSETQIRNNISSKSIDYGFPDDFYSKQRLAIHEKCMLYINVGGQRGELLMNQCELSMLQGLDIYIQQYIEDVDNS

Variants of: B1
Details: with tsiv3_vibch tsiV3, Q9KN41

| Variant | effect of a mutation on the interaction |
| --- | --- |
| R996A | decreasing interaction |

Variants of: B1
Details: with tsiv3_vibch tsiV3, Q9KN41
Remark: another data set of the same source

| Variant | effect of a mutation on the interaction |
| --- | --- |
| Y826A | decreasing interaction |

Variants of: B1
Details: with tsiv3_vibch tsiV3, Q9KN41
Remark: another data set of the same source

| Variant | effect of a mutation on the interaction |
| --- | --- |
| L982A | decreasing interaction |

Variants of: B1
Details: with tsiv3_vibch tsiV3, Q9KN41
Remark: another data set of the same source

| Variant | effect of a mutation on the interaction |
| --- | --- |
| V941A | decreasing interaction |

Variants of: B1
Details: with tsiv3_vibch tsiV3, Q9KN41
Remark: another data set of the same source

| Variant | effect of a mutation on the interaction |
| --- | --- |
| D842A | decreasing interaction |

Variants of: B1
Details: with tsiv3_vibch tsiV3, Q9KN41
Remark: another data set of the same source

| Variant | effect of a mutation on the interaction |
| --- | --- |
| Q942A | decreasing interaction |
